Data from patent US8278037B2, “N-acetylgalactosamine transferases and nucleic acids encoding the same” (National Institute of Advanced Industrial Science and …, priority 2002, dated 2012).

Experiments:
NGalNAc-T1 = molecular target: T1, NGalNAc-T1 (Homo sapiens, UniProt Q76KP1); assay: Study of optimum pH in enzymatic activity; format: biochemical; conditions: for (A) − (B): blank 263.21 subtracted
T1 sequence (Q76KP1 62-1039): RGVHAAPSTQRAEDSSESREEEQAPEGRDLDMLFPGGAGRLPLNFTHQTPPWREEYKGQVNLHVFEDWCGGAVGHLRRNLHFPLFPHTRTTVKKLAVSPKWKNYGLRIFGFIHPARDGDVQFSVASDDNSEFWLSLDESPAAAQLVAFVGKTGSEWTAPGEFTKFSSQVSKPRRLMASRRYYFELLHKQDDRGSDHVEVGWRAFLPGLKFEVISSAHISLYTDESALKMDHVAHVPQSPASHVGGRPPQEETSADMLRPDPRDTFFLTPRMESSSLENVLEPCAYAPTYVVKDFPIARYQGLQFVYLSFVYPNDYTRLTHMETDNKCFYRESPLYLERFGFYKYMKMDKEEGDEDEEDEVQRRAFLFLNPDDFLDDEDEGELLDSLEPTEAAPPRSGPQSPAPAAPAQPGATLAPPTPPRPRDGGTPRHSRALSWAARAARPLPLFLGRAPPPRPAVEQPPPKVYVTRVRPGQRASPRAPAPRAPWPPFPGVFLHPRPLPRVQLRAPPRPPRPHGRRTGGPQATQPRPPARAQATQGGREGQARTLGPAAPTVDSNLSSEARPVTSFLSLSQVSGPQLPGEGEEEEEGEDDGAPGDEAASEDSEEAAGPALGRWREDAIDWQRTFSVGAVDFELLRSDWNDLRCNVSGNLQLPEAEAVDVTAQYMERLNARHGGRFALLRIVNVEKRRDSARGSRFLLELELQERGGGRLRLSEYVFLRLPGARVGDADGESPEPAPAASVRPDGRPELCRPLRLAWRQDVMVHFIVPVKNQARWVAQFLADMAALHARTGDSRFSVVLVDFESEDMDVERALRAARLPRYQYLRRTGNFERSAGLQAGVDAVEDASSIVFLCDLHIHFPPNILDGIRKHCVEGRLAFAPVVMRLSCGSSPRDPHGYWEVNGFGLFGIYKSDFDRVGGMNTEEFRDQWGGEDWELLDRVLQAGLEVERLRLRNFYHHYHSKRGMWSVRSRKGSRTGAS
Text: As described above, it was explained that NGalNAc-T1 and NGalNAc-T2 are glycosyl transferases which transfer GalNAc to GlcNAc. Thereat, the optimum pH of both enzymes was studied. The buffer solutions used are MES (pH 5.5, 6.0, 6.26, 6.5, 6.75), HEPES (pH 6.75, 7.0, 7.4).
In addition, the value (263.21 dpm) of MES (pH 6.75) was adopted as a blank value in the case of a non-enzyme. Further, when pH of HEPES buffer was 7.4 for NGalNAc-T1 and 6.75 for NGalNAc-T2, the highest value was shown. […] Hereinafter, MES (pH 6.5) was used in each of experiments.

[1] = test system: asialo/agalacto-fetal calf fetuin; assay: LacdiNAc synthesizing activity toward asialo/agalacto-fetal calf fetuin, WFA lectin blot; format: biochemical; conditions: 37° C. for 16 hr, HRP conjugated WFA lectin detection
Procedure: Fetal calf fetuin (FCF), neuraminidase, β1-4 galactosidase and glycopeptidase F were purchased from Sigma, Nacalai Tesque (Kyoto, Japan), Calbiochem and Takara, respectively. Asialo/agalacto-FCF was prepared from 200 μg of FCF by incubating with 4 μU of neuraminidase and 12 μU of β1,4-galactosidase at 37° C. for 16 hr. The transfer of GalNAc by GalNAc-T2 to glycoprotein was performed in 20 μl of a standard reaction mixture containing 50 μg of asialo/agalacto-FCF produced by glycosidase treatment. After the incubation at 37° C. for 16 hr, each 5 μl of the reaction mixture was digested with glycopeptidase F (GPF) according to manufacture's instruction. For detection of transferred GalNAc, horseradish peroxidase (HRP) conjugated lectin, Wisteria floribunda agglutinin (WFA) (EY Laboratories, San Mateo, Calif.), was used. A 1 μl of reaction mixtures subjected to 12.5% SDS-PAGE were transferred to nitrocellulose membrane (Schleicher & Schuell, Keene, N.H.) and stained with 0.1% HRP conjugated WFA lectin. The signals were detected using enhanced chemiluminescence (ECL) and Hyperfilm ECL (Amersham Biosciences).

glycodelin in CHO cells = assay: N-glycan structures on glycodelin from NGalNAc-T gene transfected CHO cells, WFA lectin blotting; format: cell-based; conditions: gene co-transfected with glycodelin gene in CHO cells, 48 hr culture medium
Text: As shown above, both NGalNAc-T1 and -T2 could synthesize LacdiNAc structures on mono- and oligosaccharide acceptors. Actually, it is known that the LacdiNAc structures exist in N-glycans on some glycoproteins. Therefore we examined the ability of NGalNAc-T1 to construct LacdiNAc on glycodelin, which is one of major glycoproteins carrying LacdiNAc structures, in vivo. CHO cells were employed for this purpose, because glycodelin produced in CHO cells is devoid of any of the LacdiNAc-based chains.
The glycodelin expression vector was transfected into CHO cells expressing NGalNAc-T1 or -T2 gene and the culture medium was collected from 48 hr-culture medium. Glycodelin was harvested with WFA affinity column from the culture medium. The harvested glycodelin was applied to SDS-PAGE and used for lectin blotting with WFA.

pH at which the highest value was shown (NGalNAc-T1; HEPES buffer): 7.4
Incorporation of radioactivity (A) (NGalNAc-T1; HEPES buffer (pH 6.75)): 1685.06 dpm
(A) − (B) (NGalNAc-T1; HEPES buffer (pH 6.75)): 1421.85 dpm
Incorporation of radioactivity (A) (NGalNAc-T1; HEPES buffer (pH 7.0)): 1138.38 dpm
(A) − (B) (NGalNAc-T1; HEPES buffer (pH 7.0)): 875.17 dpm
Incorporation of radioactivity (A) (NGalNAc-T1; HEPES buffer (pH 7.4)): 2587.48 dpm
(A) − (B) (NGalNAc-T1; HEPES buffer (pH 7.4)): 2324.27 dpm
pH at which the activity tends to be higher (NGalNAc-T1; MES buffer): 6.5
Incorporation of radioactivity (A) (NGalNAc-T1; MES buffer (pH 5.5)): 339.76 dpm
(A) − (B) (NGalNAc-T1; MES buffer (pH 5.5)): 76.55 dpm
Incorporation of radioactivity (A) (NGalNAc-T1; MES buffer (pH 6.0)): 321.04 dpm
(A) − (B) (NGalNAc-T1; MES buffer (pH 6.0)): 57.83 dpm
Incorporation of radioactivity (A) (NGalNAc-T1; MES buffer (pH 6.26)): 636.34 dpm
(A) − (B) (NGalNAc-T1; MES buffer (pH 6.26)): 373.13 dpm
Incorporation of radioactivity (A) (NGalNAc-T1; MES buffer (pH 6.5)): 1767.72 dpm
(A) − (B) (NGalNAc-T1; MES buffer (pH 6.5)): 1504.51 dpm
Incorporation of radioactivity (A) (NGalNAc-T1; MES buffer (pH 6.75)): 923.92 dpm
(A) − (B) (NGalNAc-T1; MES buffer (pH 6.75)): 660.71 dpm
B1: NGalNAc-T1: human enzyme (SEQ ID NO: 1) transferring N-acetylgalactosamine to N-acetylglucosamine via β1-4 linkage; tested as FLAG-tagged amino acids 62-1039 (protein, listed as Homo sapiens)
chain: T1 sequence (Q76KP1 62-1039)
modifications: FLAG tag
transfer of GalNAc to glycoprotein asialo/agalacto-FCF [1]: same as NGalNAc-T2
non-reducing terminal GalNAc on glycodelin (glycodelin in CHO cells): non-reducing terminal GalNAc is detected
